The assay addresses lysine-acetylated histone H4 peptide SGRGKGG-AcK-GLGK (Lys8 acetylated). Briefly: NMR titration, 15N-HSQC chemical shift changes against ligand concentration.

B1: bromodomain of P/CAF (residues 719-832 of SEQ ID NO:2), Q92831 719-832 (protein)
chain: SKEPRDPDQLYSTLKSILQQVKSHQSAWPFMEPVKRTEAPGYYEVIRFPMDLKTMSERLKNRYYVSKKLFMADLQRVFTNCKEYNAAESEYYKCANILEKFFFSKIKEAGLIDK
For the molecule B1, the Kd was 346 µM.

For the origin of these results see patent US20120028912A1.
